Data: patent publication US20230174652A1 (Regeneron, published 2023)

Tests used:
[1] = target: T1, CD3 molecules on human T cells (human, UniProt P07766 23-207); assay: cell-based or functional assay
[2] = target: T1, CD3 molecules on human T cells; assay: cell-based or functional assay; remark: listed apart in the source

T1 sequence (P07766 23-207): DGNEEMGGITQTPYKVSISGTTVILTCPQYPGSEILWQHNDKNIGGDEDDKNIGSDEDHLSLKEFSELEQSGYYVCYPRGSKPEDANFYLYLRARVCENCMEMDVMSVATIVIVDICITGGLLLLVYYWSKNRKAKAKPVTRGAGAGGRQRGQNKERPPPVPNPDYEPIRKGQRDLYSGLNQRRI

CD4+ T cell activation (% CD25+), Fold Change (EC50), fixed REGN5837 0 (reference) [1]: 1 fold | CD4+ T cell activation (% CD25+), REGN1979 EC50 (M), fixed REGN5837 0 [1]: 9.17e-13 M | CD4+ T cell activation (% CD25+), REGN1979 EC50 (M), fixed REGN5837 1.00 × 10^-7 [1]: 1.16e-13 M | CD4+ T cell activation (% CD25+), REGN1979 EC50 (M), fixed REGN5837 1.67 × 10^-8 [1]: 8.7e-14 M | CD4+ T cell activation (% CD25+), REGN1979 EC50 (M), fixed REGN5837 4.63 × 10^-10 [1]: 1.46e-13 M | CD4+ T cell activation (% CD25+), REGN1979 EC50 (M), fixed REGN5837 7.72 × 10^-11 [1]: 2.08e-13 M | CD4+ T-cell Proliferation, Fold Change (EC50), fixed REGN5837 0 (reference) [1]: 1 fold | CD4+ T-cell Proliferation, REGN1979 EC50 (M), fixed REGN5837 0 [1]: 1.63e-11 M | CD4+ T-cell Proliferation, REGN1979 EC50 (M), fixed REGN5837 1.00 × 10^-7 [1]: 8.42e-13 M | CD4+ T-cell Proliferation, REGN1979 EC50 (M), fixed REGN5837 1.67 × 10^-8 [1]: 9.31e-13 M | CD4+ T-cell Proliferation, REGN1979 EC50 (M), fixed REGN5837 2.78 × 10^-9 [1]: 4.25e-13 M | CD4+ T-cell Proliferation, REGN1979 EC50 (M), fixed REGN5837 4.63 × 10^-10 [1]: 1.25e-12 M | CD4+ T-cell Proliferation, REGN1979 EC50 (M), fixed REGN5837 7.72 × 10^-11 [1]: 2.36e-12 M | CD8+ T cell activation (% CD25+), Fold Change (EC50), fixed REGN5837 0 (reference) [1]: 1 fold | CD8+ T cell activation (% CD25+), REGN1979 EC50 (M), fixed REGN5837 0 [1]: 3.38e-12 M | CD8+ T cell activation (% CD25+), REGN1979 EC50 (M), fixed REGN5837 1.00 × 10^-7 [1]: 6.32e-13 M | CD8+ T cell activation (% CD25+), REGN1979 EC50 (M), fixed REGN5837 1.67 × 10^-8 [1]: 5.88e-13 M | CD8+ T cell activation (% CD25+), REGN1979 EC50 (M), fixed REGN5837 2.78 × 10^-9 [1]: 2.68e-13 M | CD8+ T cell activation (% CD25+), REGN1979 EC50 (M), fixed REGN5837 4.63 × 10^-10 [1]: 9.01e-13 M | CD8+ T cell activation (% CD25+), REGN1979 EC50 (M), fixed REGN5837 7.72 × 10^-11 [1]: 1.64e-12 M | CD8+ T-cell Proliferation, Fold Change (EC50), fixed REGN5837 0 (reference) [1]: 1 fold | CD8+ T-cell Proliferation, REGN1979 EC50 (M), fixed REGN5837 0 [1]: 1.97e-11 M | CD8+ T-cell Proliferation, REGN1979 EC50 (M), fixed REGN5837 1.00 × 10^-7 [1]: 1.55e-12 M | CD8+ T-cell Proliferation, REGN1979 EC50 (M), fixed REGN5837 1.67 × 10^-8 [1]: 8.31e-13 M | CD8+ T-cell Proliferation, REGN1979 EC50 (M), fixed REGN5837 2.78 × 10^-9 [1]: 7.09e-13 M | CD8+ T-cell Proliferation, REGN1979 EC50 (M), fixed REGN5837 4.63 × 10^-10 [1]: 3.43e-12 M | CD8+ T-cell Proliferation, REGN1979 EC50 (M), fixed REGN5837 7.72 × 10^-11 [1]: 8.36e-12 M | IFN-gamma release, Fold change (CKR), fixed REGN5837 0 (reference) [2]: 1 fold | IFN-gamma release, REGN1979 EC50 (M), fixed REGN5837 0 [2]: 1.82e-10 M | IFN-gamma release, REGN1979 EC50 (M), fixed REGN5837 1.0 X 10^-7 [2]: 1.17e-10 M | IFN-gamma release, REGN1979 EC50 (M), fixed REGN5837 1.67 X 10^-8 [2]: 5.34e-11 M | IFN-gamma release, REGN1979 EC50 (M), fixed REGN5837 2.78 X 10^-9 [2]: 2e-10 M | IFN-gamma release, REGN1979 EC50 (M), fixed REGN5837 4.63 X 10^-10 [2]: 6.72e-11 M | IFN-gamma release, REGN1979 EC50 (M), fixed REGN5837 7.72 X 10^-11 [2]: 6.57e-11 M | IL-2 release, Fold change (CKR), fixed REGN5837 0 (reference) [2]: 1 fold | IL-2 release, REGN1979 EC50 (M), fixed REGN5837 0 [2]: 1.25e-10 M | IL-2 release, REGN1979 EC50 (M), fixed REGN5837 1.0 X 10^-7 [2]: 2.81e-11 M | IL-2 release, REGN1979 EC50 (M), fixed REGN5837 1.67 X 10^-8 [2]: 1.96e-11 M | IL-2 release, REGN1979 EC50 (M), fixed REGN5837 2.78 X 10^-9 [2]: 5.18e-12 M | IL-2 release, REGN1979 EC50 (M), fixed REGN5837 4.63 X 10^-10 [2]: 5.36e-11 M | IL-2 release, REGN1979 EC50 (M), fixed REGN5837 7.72 X 10^-11 [2]: 3.89e-08 M | IL-4 release, Fold change (CKR), fixed REGN5837 0 (reference) [2]: 1 fold | IL-4 release, REGN1979 EC50 (M), fixed REGN5837 0 [2]: 9.99e-10 M | IL-4 release, REGN1979 EC50 (M), fixed REGN5837 1.0 X 10^-7 [2]: 1.66e-11 M | IL-4 release, REGN1979 EC50 (M), fixed REGN5837 1.67 X 10^-8 [2]: 1.53e-11 M | IL-4 release, REGN1979 EC50 (M), fixed REGN5837 2.78 X 10^-9 [2]: 1.28e-11 M | IL-4 release, REGN1979 EC50 (M), fixed REGN5837 4.63 X 10^-10 [2]: 1.89e-11 M | IL-4 release, REGN1979 EC50 (M), fixed REGN5837 7.72 X 10^-11 [2]: 3.77e-10 M | IL-6 release, Fold change (CKR), fixed REGN5837 0 (reference) [2]: 1 fold | IL-6 release, REGN1979 EC50 (M), fixed REGN5837 0 [2]: 7.42e-11 M | IL-6 release, REGN1979 EC50 (M), fixed REGN5837 1.0 X 10^-7 [2]: 5.13e-11 M | IL-6 release, REGN1979 EC50 (M), fixed REGN5837 1.67 X 10^-8 [2]: 7.89e-12 M | IL-6 release, REGN1979 EC50 (M), fixed REGN5837 2.78 X 10^-9 [2]: 2.68e-11 M | IL-6 release, REGN1979 EC50 (M), fixed REGN5837 4.63 X 10^-10 [2]: 1.45e-12 M | IL-6 release, REGN1979 EC50 (M), fixed REGN5837 7.72 X 10^-11 [2]: 1.61e-10 M | IL-10 release, Fold change (CKR), fixed REGN5837 0 (reference) [2]: 1 fold | IL-10 release, REGN1979 EC50 (M), fixed REGN5837 0 [2]: 9.95e-11 M | IL-10 release, REGN1979 EC50 (M), fixed REGN5837 1.0 X 10^-7 [2]: 3.54e-11 M | IL-10 release, REGN1979 EC50 (M), fixed REGN5837 1.67 X 10^-8 [2]: 1.04e-10 M | IL-10 release, REGN1979 EC50 (M), fixed REGN5837 2.78 X 10^-9 [2]: 2.43e-10 M | IL-10 release, REGN1979 EC50 (M), fixed REGN5837 4.63 X 10^-10 [2]: 5.29e-11 M | IL-10 release, REGN1979 EC50 (M), fixed REGN5837 7.72 X 10^-11 [2]: 3.34e-11 M | IL-17A release, Fold change (CKR), fixed REGN5837 0 (reference) [2]: 1 fold | IL-17A release, REGN1979 EC50 (M), fixed REGN5837 0 [2]: 2.5e-10 M | IL-17A release, REGN1979 EC50 (M), fixed REGN5837 1.0 X 10^-7 [2]: 3.22e-10 M | IL-17A release, REGN1979 EC50 (M), fixed REGN5837 1.67 X 10^-8 [2]: 1.11e-10 M | IL-17A release, REGN1979 EC50 (M), fixed REGN5837 2.78 X 10^-9 [2]: 7.6e-11 M | IL-17A release, REGN1979 EC50 (M), fixed REGN5837 4.63 X 10^-10 [2]: 4.63e-10 M | IL-17A release, REGN1979 EC50 (M), fixed REGN5837 7.72 X 10^-11 [2]: 1.86e-10 M | TNF alpha release, Fold change (CKR), fixed REGN5837 0 (reference) [2]: 1 fold | TNF alpha release, REGN1979 EC50 (M), fixed REGN5837 0 [2]: 2.43e-10 M | TNF alpha release, REGN1979 EC50 (M), fixed REGN5837 1.0 X 10^-7 [2]: 5.03e-12 M | TNF alpha release, REGN1979 EC50 (M), fixed REGN5837 1.67 X 10^-8 [2]: 8.69e-13 M | TNF alpha release, REGN1979 EC50 (M), fixed REGN5837 2.78 X 10^-9 [2]: 3.45e-12 M | TNF alpha release, REGN1979 EC50 (M), fixed REGN5837 7.72 X 10^-11 [2]: 1.62e-10 M
B1: REGN1979 (bispecific antibody, human IgG4 S228P, kappa)
heavy 1: EVQLVESGGGLVQPGRSLRLSCVASGFTFNDYAMHWVRQAPGKGLEWVSVISWNSDSIGYADSVKGRFTISRDNAKNSLYLQMHSLRAEDTALYYCAKDNHYGSGSYYYYQYGMDVWGQGTTVTVSSASTKGPSVFPLAPCSRSTSESTAALGCLVKDYFPEPVTVSWNSGALTSGVHTFPAVLQSSGLYSLSSVVTVPSSSLGTKTYTCNVDHKPSNTKVDKRVESKYGPPCPPCPAPPVAGPSVFLFPPKPKDTLMISRTPEVTCVVVDVSQEDPEVQFNWYVDGVEVHNAKTKPREEQFNSTYRVVSVLTVLHQDWLNGKEYKCKVSNKGLPSSIEKTISKAKGQPREPQVYTLPPSQEEMTKNQVSLTCLVKGFYPSDIAVEWESNGQPENNYKTTPPVLDSDGSFFLYSRLTVDKSRWQEGNVFSCSVMHEALHNHYTQKSLSLSLGK
heavy 2: EVQLVESGGGLVQPGRSLRLSCAASGFTFDDYTMHWVRQAPGKGLEWVSGISWNSGSIGYADSVKGRFTISRDNAKKSLYLQMNSLRAEDTALYYCAKDNSGYGHYYYGMDVWGQGTTVTVASASTKGPSVFPLAPCSRSTSESTAALGCLVKDYFPEPVTVSWNSGALTSGVHTFPAVLQSSGLYSLSSVVTVPSSSLGTKTYTCNVDHKPSNTKVDKRVESKYGPPCPPCPAPPVAGPSVFLFPPKPKDTLMISRTPEVTCVVVDVSQEDPEVQFNWYVDGVEVHNAKTKPREEQFNSTYRVVSVLTVLHQDWLNGKEYKCKVSNKGLPSSIEKTISKAKGQPREPQVYTLPPSQEEMTKNQVSLTCLVKGFYPSDIAVEWESNGQPENNYKTTPPVLDSDGSFFLYSRLTVDKSRWQEGNVFSCSVMHEALHNRFTQKSLSLSLGK
light: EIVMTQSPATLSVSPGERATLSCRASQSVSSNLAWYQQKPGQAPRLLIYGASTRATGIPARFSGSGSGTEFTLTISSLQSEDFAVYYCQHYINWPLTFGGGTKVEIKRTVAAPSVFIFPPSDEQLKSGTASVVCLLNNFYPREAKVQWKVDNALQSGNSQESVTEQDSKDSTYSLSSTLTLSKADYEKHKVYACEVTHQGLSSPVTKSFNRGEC
WSU-DLCL2 Cell Killing, Fold Change (EC50), fixed REGN5837 0 (reference) [1]: 1 fold | WSU-DLCL2 Cell Killing, REGN1979 EC50 (M), fixed REGN5837 0 [1]: 2.89e-12 M | WSU-DLCL2 Cell Killing, REGN1979 EC50 (M), fixed REGN5837 1.00 × 10^-7 [1]: 8.53e-14 M | WSU-DLCL2 Cell Killing, REGN1979 EC50 (M), fixed REGN5837 1.67 × 10^-8 [1]: 1.85e-13 M | WSU-DLCL2 Cell Killing, REGN1979 EC50 (M), fixed REGN5837 2.78 × 10^-9 [1]: 3.98e-13 M | WSU-DLCL2 Cell Killing, REGN1979 EC50 (M), fixed REGN5837 4.63 × 10^-10 [1]: 3.46e-13 M | WSU-DLCL2 Cell Killing, REGN1979 EC50 (M), fixed REGN5837 7.72 × 10^-11 [1]: 8.37e-13 M
